According to PMC3868940 (Nature methods, 2013):
Like-named read-outs stand apart in the source and are kept apart here.

B1: Diacylglycerol Kinase (DgkA) from E. coli (enzyme, E. coli K12, UniProt P0ABN1 2-122, looked up)
chain: ANNTTGFTRIIKAAGYSWKGLRAAWINEAAFRQEGVAVLLAVVIACWLDVDAITRVLLISSVMLVMIVEILNSAIEAVVDRIGSEYHELSGRAKDMGSAAVLIAIIVAVITWCILLWSHFG

Tests used:
Test in all cases: native MS
[1] = molecular target: sensory rhodopsin II (pSRII) from Natronomonas pharaonis, pSRII(1-241) (Natronomonas pharaonis) (UniProt P42196)
native MS [2] = molecular target: the molecule itself
native MS [3] = molecular target: the molecule itself; remark: listed apart in the source

Molecule | stoichiometry N [1] | stoichiometry N (native MS [2]) | stoichiometry N (native MS [3])
sensory rhodopsin II (pSRII) from Natronomonas pharaonis, pSRII(1-241) (from UniProt P42196 1-239) (receptor) | 2 | – | –
B1 | – | 2 | 3
